Consider one molecule from paper PMC4028237, “GmFT2a and GmFT5a Redundantly and Differentially Regulate Flowering through Interaction with and Upregulation of the bZIP Transcription Factor GmFDL19 in Soybean”.

The data set deals with T1, GmFDL19 (Glycine max, UniProt I1N8K2 1-320).
T1 sequence: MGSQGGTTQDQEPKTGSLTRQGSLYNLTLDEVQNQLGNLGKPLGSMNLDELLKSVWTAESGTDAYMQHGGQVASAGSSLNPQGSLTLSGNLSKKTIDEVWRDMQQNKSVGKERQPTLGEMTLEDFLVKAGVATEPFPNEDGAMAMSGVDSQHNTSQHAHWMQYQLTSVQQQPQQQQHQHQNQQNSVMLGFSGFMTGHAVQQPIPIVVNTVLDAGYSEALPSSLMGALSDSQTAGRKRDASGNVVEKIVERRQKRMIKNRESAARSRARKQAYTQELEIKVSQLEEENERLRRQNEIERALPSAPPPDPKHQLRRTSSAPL
Description: EMSA; Invitrogen EMSA kit E33075, 6% native TBE polyacrylamide gel, 200 V 45 min, SYBR Green stain; binding buffer, salt, pH and temperature not stated. Particulars: protein: recombinant; tags: His (pET29b, NdeI/SalI); chain copies: 2; label: none (SYBR Green stain); blunt.

B1: GmAP1aP-1280 CArG box (dsDNA)
DNA 1: GCAACCATCCATCCAAAAATAAGGCAAAAAAAATAAACAT
DNA 2: ATGTTTATTTTTTTTGCCTTATTTTTGGATGGATGGTTGC
As for B1, the binding result is given as “no binding”.
